Experiment: MRI (TOMROP) after injection of Gd-BSA in 9 L rat model of cerebral gliosarcoma
Assay type: in vivo, Fisher 344 rats
Settings: rats with 9 L cerebral tumor
Description: Given a “gold-standard” map of CA concentration, an ANN is trainable to directly estimate CA concentration from MRI image sets in which the time-varying behavior of the images depends, albeit nonlinearly, on CA concentration. Some of our studies using TOMROP (“T One by Multiple Read Out Pulses”) image sets as inputs in a set of tubular gel phantoms are supportive. In accordance with some embodiments, without limitation, an ANN for estimating CA concentration in the brain tissue of 9 male Fisher rats, using as inputs TOMROP signal changes after injection of Gd-BSA in a 9 L rat model of cerebral gliosarcoma (Ewing et al. 2006), was designed, trained, optimized, and tested. The MRI experiment was followed by quantitative autoradiography (“QAR”) using radioiodinated serum albumin (“RISA”), thus essentially replicating the MRI as to its timing, procedures, and indicator. The autoradiogram of the QAR procedure served as the training set.
Animal Studies: As part of our studies to compare MRI estimates of transfer constant to QAR estimates (results not included here), nine animals (Fisher 344 rats) with 9 L tumor (Ewing et al. 2006) were studied. Mean tumor age was 14.6±0.7 days (range 14 to 16 days) for all animals. […]

Gadolinium-labeled Bovine Serum Albumin [Gd-BSA]
Extravasation of Gd-BSA: occurred within the tumors and at tumor borders in all animals
